Target: T1, recombinant cIAP1 protein (human, UniProt Q13490 1-618)
T1 construct: the whole cIAP1, human cDNA; cloned in pGEX-6P-1; also called released from GST-cIAP1 (GST-cIAP); source: E. coli DH5α, purified (Glutathione Sepharose 4B), released from the beads with 3C protease (Turbo3C)
Experiment: pull-down; GST pull-down: 2 μg polyubiquitin chains or 0.5 μg cIAP1 with 0.5 μg GST or GST-ZnF5-7 proteins and Glutathione Sepharose 4B in TNE buffer (20 mM Tris-HCl pH 7.5, 130 mM NaCl, 1% Triton X-100, 1 mM EDTA) with 0.5 mM DTT and 0.1 mg/ml BSA, 3 hr; immunoblot
Conditions: both partners purified

T1 sequence (Q13490 whole entry): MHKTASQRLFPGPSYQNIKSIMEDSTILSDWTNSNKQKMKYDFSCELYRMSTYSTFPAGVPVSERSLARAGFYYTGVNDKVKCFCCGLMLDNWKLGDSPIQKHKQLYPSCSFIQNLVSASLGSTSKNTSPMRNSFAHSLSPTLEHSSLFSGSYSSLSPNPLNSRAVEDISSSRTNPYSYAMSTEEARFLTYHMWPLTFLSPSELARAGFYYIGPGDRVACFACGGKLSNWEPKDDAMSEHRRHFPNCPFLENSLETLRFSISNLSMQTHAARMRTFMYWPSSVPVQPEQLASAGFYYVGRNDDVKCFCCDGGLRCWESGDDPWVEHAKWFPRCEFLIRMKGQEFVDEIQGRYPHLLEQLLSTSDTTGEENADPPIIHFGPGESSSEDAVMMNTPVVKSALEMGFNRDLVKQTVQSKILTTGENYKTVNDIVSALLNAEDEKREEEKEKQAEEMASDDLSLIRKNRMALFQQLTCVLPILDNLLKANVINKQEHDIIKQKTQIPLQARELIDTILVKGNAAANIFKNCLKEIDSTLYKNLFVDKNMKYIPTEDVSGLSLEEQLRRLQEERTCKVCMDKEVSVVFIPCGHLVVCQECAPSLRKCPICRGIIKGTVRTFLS

binding result: binds
B1: GST-A20-ZnF5-7 (domain or fragment, human, UniProt P21580 647-790, looked up)
chain: TASRFQNTIPCLGRECGTLGSTMFEGYCQKCFIEAQNQRFHEAKRTEEQLRSSQRRDVPRTTQSTSRPKCARASCKNILACRSEELCMECQHPNQRMGPGAHRGEPAPEDPPKQRCRAPACDHFGNAKCNGYCNECFQFKQMYG
notes: A20, human, fragment aa 647-790 encompassing ZnF5 to ZnF7; cloned in pGEX-6P-1; also called GST-ZnF5-7; source: E. coli DH5α, purified (Glutathione Sepharose 4B), dialyzed with PBS
